# Experimental data taken from patent publication US20210054097A1 (Novo Nordisk, published 2021).
# Substitutions are numbered along the chain they refer to. Ends that are not written are not given here.
# T1: FX activation peptide 12-mer PTENPFDLLDFN (human)
# T1 peptide: PTENPFDLLDFN-biotin
# T2: FX activation peptide 12-mer LLDFNQTQPERG (human)
# T2 peptide: LLDFNQTQPERG-biotin
# T3: FX activation peptide 12-mer DPTENPFDLLDF (human)
# T3 peptide: DPTENPFDLLDF-biotin
# T4: FX activation peptide 12-mer VAQATSSSGEAP (human)
# T4 peptide: VAQATSSSGEAP-biotin
# T5: FX activation peptide 12-mer PFDLLDFNQTQP (human)
# T5 peptide: PFDLLDFNQTQP-biotin
# T6: FX activation peptide 12-mer PDSITWKPYDAA (human)
# T6 peptide: PDSITWKPYDAA-biotin
# T7: FX activation peptide 12-mer ADLDPTENPFDL (human)
# T7 peptide: ADLDPTENPFDL-biotin
# T8: FX activation peptide 12-mer SVAQATSSSGEA (human)
# T8 peptide: SVAQATSSSGEA-biotin
# B1: Nb 701B09 (VHH)
# VHH: EVQLVESGGGVVQPGGSLRLSCAASGRTFSTYAMGWFRQAPGKEREFVAAISWSGSRTYYADSVKGRFTISRDNSKNTVYLQMNSLRPEDTALYYCAADATPANGELDYWGQGTLVTVSS
# notes: monovalent Nanobody; also called Nb 701609; not shown: C-terminal FLAG3 and HIS6 tag
# B2: Nb 702C12 (VHH)
# VHH: EVQLVESGGGVVQPGGSLRLSCVASGRTFSRYAMGWFRQAPGKEREFVAAISRRGGSTNYADSVKGRFTISRDNSKNTVYLQMNSLRPEDTALYYCAADYSSGDGYLDYWGQGTLVTVSS
# notes: monovalent Nanobody; not shown: C-terminal FLAG3 and HIS6 tag
# B3: Nb 729A04 (VHH)
# VHH: EVQLVESGGGVVQPGGSLRLSCAASGFTFSDYAMSWVRQAPGKGLEWVSGITSGGGRTYYADSVKGRFTISRDNSKNTLYLQMNSLRPEDTALYYCAAVRTLGLRGSYDYWGQGTLVTVSS
# notes: as for B2
# B4: Nb 729C08 (VHH)
# VHH: EVQLVESGGGVVQPGGSLRLSCAASGFTFSDYAMSWVRQAPGKGLEWVSGITGGGRTYYADSVKGRFTISRDNSKNTLYLQMNSLRPEDTALYYCAAAILTRTRRTYDYWGQGTLVTVSS
# notes: monovalent Nanobody; also called Nb 729008; not shown: C-terminal FLAG3 and HIS6 tag
# B5: Nb 501A02 (VHH)
# VHH: EVQLVESGGGLVQPGGSLRLSCAASGFTFSNYEMSWVRQAPGKGLEWVSDIGSGGGVSTYYADSVKGRFTISRDNAKNTLYLQMNSLKPEDTAMYYCARGWTYGSDGMDYWGKGTLVTVSS
# notes: monovalent control Nanobody; also called control Nanobody; not shown: C-terminal FLAG3 and HIS6 tag
# B6: Nb 701C06 (VHH)
# VHH: B1 VHH with W53R, S54R, S56G, P102A, A103R, N104D, E106L
# notes: as for B2
# B7: Nb 701D07 (VHH)
# VHH: EVQLVESGGGVVQPGGSLRLSCAASGGTLSRYAMGWFRQAPGKEREFVAAITRRGSRTYYADSVKGRFTISRDNSKNTVYLQMNSLRPEDTALYYCAADLAPGDYALDYWGQGTLVTVSS
# notes: as for B2
# B8: Nb 730C03 (VHH)
# VHH: B3 VHH with A23V, G55S, L79V, V99A, R100I, T101L, L102R, L104Y, G106K, S107T
# notes: monovalent Nanobody; also called Nb 730003; not shown: C-terminal FLAG3 and HIS6 tag
# Target: T1, FX activation peptide 12-mer …
# Assay: peptide ELISA
# Procedure, shortened: (§1)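 Nanobodies (FLAG-tagged) or IgG antibodies, 2 μg/mL, incubated 1 h on C-terminally biotinylated peptide captured via streptavidin, washing buffer pH 8.60 containing CaCl₂ and Tween 20. Read-out: HRP-conjugated secondary antibody with TMB colour development.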
Binder,ELISA signal relative to background,binding result
B1,3.91,
B2,4.58,
B3,5.18,
B4,2.06,
B5,0.88,no binding (tested: 2 µg/mL)

# Target: T2, FX activation peptide 12-mer …
# Assay: peptide ELISA
# Procedure, shortened: as §1
Binder,ELISA signal relative to background,binding result
B6,1.03,
B1,1.09,
B7,0.8,
B3,1.1,
B8,1.1,
B4,1.13,
B5,0.79,no binding (tested: 2 µg/mL)

# Target: T3, FX activation peptide 12-mer …
# Assay: peptide ELISA
# Procedure, shortened: as §1
Binder,ELISA signal relative to background,binding result
B1,2.87,
B2,4.16,
B3,4.03,
B5,0.88,no binding (tested: 2 µg/mL)

# Target: T4, FX activation peptide 12-mer …
# Assay: peptide ELISA
# Procedure, shortened: as §1
Binder,ELISA signal relative to background,binding result
B6,0.93,
B1,0.73,
B7,0.84,
B2,1.02,
B3,0.99,
B8,1.24,
B4,1.09,
B5,0.88,no binding (tested: 2 µg/mL)

# Target: T5, FX activation peptide 12-mer …
# Assay: peptide ELISA
# Procedure, shortened: as §1
Binder,ELISA signal relative to background,binding result
B1,3.48,
B2,4.95,
B8,1.23,
B4,1.18,
B5,0.79,no binding (tested: 2 µg/mL)

# Target: T6, FX activation peptide 12-mer …
# Assay: peptide ELISA
# Procedure, shortened: as §1
Binder,ELISA signal relative to background,binding result
B6,0.92,
B1,0.83,
B7,0.84,
B2,1.05,
B3,0.95,
B8,1.24,
B4,1.17,
B5,0.79,no binding (tested: 2 µg/mL)

# Target: T7, FX activation peptide 12-mer …
# Assay: peptide ELISA
# Procedure, shortened: as §1
Binder,ELISA signal relative to background,binding result
B6,0.87,
B1,0.73,
B7,0.77,
B2,0.91,
B3,0.98,
B8,1.25,
B4,1.11,
B5,0.71,no binding (tested: 2 µg/mL)

# Target: T8, FX activation peptide 12-mer …
# Assay: peptide ELISA
# Procedure, shortened: as §1
Binder,ELISA signal relative to background,binding result
B6,0.92,
B1,0.76,
B7,0.76,
B2,0.96,
B3,0.92,
B8,1.21,
B4,1.14,
B5,0.74,no binding (tested: 2 µg/mL)

# Target: human activated Factor X (human, UniProt P00742 41-179; P00742 235-488)
# Sequence (P00742 41-179, chain 1 of 2): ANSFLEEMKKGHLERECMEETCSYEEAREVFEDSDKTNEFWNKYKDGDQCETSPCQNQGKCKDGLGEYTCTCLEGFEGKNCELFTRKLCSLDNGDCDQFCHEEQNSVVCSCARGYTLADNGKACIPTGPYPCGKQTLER
# Sequence (P00742 235-488, chain 2 of 2): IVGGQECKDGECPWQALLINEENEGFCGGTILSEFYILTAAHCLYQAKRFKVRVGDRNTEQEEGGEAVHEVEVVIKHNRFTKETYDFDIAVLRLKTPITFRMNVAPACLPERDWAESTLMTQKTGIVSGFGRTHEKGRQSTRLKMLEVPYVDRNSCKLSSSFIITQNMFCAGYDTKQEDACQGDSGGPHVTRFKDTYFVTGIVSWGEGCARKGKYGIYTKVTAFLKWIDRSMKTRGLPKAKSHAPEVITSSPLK
# Assay: cell-based or functional assay
row,Binder,"FXa amidolytic activity (relative to free FXa, fold) [fold]"
1,B6,1.06
2,B1,1.06
3,B7,1.05
4,B2,1.05
5,B3,1.11
6,B8,1.01
7,B4,1.09

# Target: T9, human plasma-derived Factor X zymogen (human, UniProt P00742 41-179; P00742 183-488)
# T9 construct: Plasma-derived, bought (Haematologic Technologies); also called FX; human FX
# T9 sequence (P00742 41-179, chain 1 of 2): as the sequence (P00742 41-179, chain 1 of 2) above
# T9 sequence (P00742 183-488, chain 2 of 2): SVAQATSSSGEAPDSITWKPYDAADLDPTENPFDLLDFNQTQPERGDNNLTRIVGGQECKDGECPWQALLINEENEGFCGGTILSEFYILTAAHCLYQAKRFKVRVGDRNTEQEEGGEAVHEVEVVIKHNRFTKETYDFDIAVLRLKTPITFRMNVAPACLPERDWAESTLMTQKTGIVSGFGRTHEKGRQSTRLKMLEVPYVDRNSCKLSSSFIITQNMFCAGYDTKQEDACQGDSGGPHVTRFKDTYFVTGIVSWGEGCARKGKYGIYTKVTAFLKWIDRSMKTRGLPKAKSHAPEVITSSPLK
# Assay: apparent KD fitted from FXa generation assay
# Procedure: The ability of the monovalent anti-FX Nanobody® (Nb) to promote FIXa-mediated FX-activation was determined in the presence of a procoagulant phospholipid membrane according to the principles described by Scheiflinger et al. (2008) J Thromb Haemost, 6:315-322. A Fab of mAb 13F62 (IgG1 isotype, variable sequences identified by SEQ ID NO:6 and 7), also found to bind the activation peptide, were included for comparison. Moreover, anti-FX antibodies as disclosed in U.S. Pat. No. 9,334,331 (J327 and L404-k in said publication), corresponding to the anti-FX arm of ACE910); and more recently in WO2018/021450 (J327 D31H and JYL280 in said publication) and WO2018/098363 (BIIB-12-917 represented by SEQ ID NO:427 and 615 in said publication) are stated to be suitable for use as part of anti-FIX/anti-FX bispecific FVIII mimetic compounds were, furthermore, included for comparison.
# Each compound was tested individually in a concentration range from 0-1000 nM, 0-2000 nM, 0-4000 nM or 0-8000 nM by pre-incubation with 1-1.5 nM human plasma-derived FIXa (Haematologic Technologies Inc, USA) and 500 μM 25:75 phosphatidyl serine:phosphatidyl choline phospholipid vesicles (Haematologic Technologies Inc, USA) in assay buffer (50 mM HEPES, 100 mM NaCl, 5 mM CaCl₂, 0.1% (w/v) PEG8000, 1 mg/mL bovine serum albumin, pH 7.3) for 10 minutes. The reaction was initiated by addition of human plasma-derived FX (Haematologic Technologies Inc, USA) to a final concentration of 100 nM and a reaction volume of 50 μL. Following 20 minutes activation at room temperature while agitated (1000 RPM), the reaction was quenched by addition of 25 μL quench buffer (50 mM HEPES, 100 mM NaCl, 60 mM EDTA, 0.1% (w/v) PEG8000, 1 mg/mL bovine serum albumin, pH 7.3). The amount of FXa generated was determined by addition of 25 μL 2 mM S-2765 chromogenic substrate for FXa (Chromogenix, Sweden) and chromogenic substrate conversion was followed by measuring absorbance at 405 nm for 10 minutes in a microplate reader. The observed change in 405 nm absorbance (ΔAbs405/min) was fitted to the quadratic binding equation (eq. 1) to obtain the peak stimulatory activity and EC50.
row,Binder,Kd [nM]
1,B6,41.9
2,B1,72.3
3,B7,66.1
4,B2,75.4
5,B3,83.2
6,B8,63.9
7,B4,~1400
8,B5,802

# Target: T9, human plasma-derived Factor X zymogen
# Assay: cell-based or functional assay
row,Binder,Increase in FX activation (fold)
1,B6,26
2,B1,83
3,B7,17.2
4,B2,18.9
5,B3,4.1
6,B8,9.2
7,B4,> 32
8,B5,0.8
